22 molecules from patent publication US20230265198A1 (TWIST BIOSCIENCE, published 2023) can be followed below.

Numbering of substitutions follows the chain as printed.

B1: NRP1-115 (antibody, IgG2, V domains shown)
VH: EVQLLESGGGLVQPGGSLRLSCAASGFTFGHYEMDWVRQAPGKGLEWVSSIDDRGRYTYYADSVKGRFTISRDNSKNTLYLQMNSLRAEDTAVYYCARSKIAFDYWGQGTLVTVSS
VL: DIQMTQSPSSLSASVGDRVTITCRASQNIRSYLNWYQQKPGKAPKLLIYGRNKRPSGVPSRFSGSGSGTDFTLTISSLQPEDFATYYCQQSYENPLTFGQGTKVEIK
B2: NRP1-132 (antibody, IgG2, V domains shown)
VH: EVQLLESGGGLVQPGGSLRLSCAASGFTFGDHGMGWVRQAPGKGLEWVSYITPKGDHTYYADSVKGRFTISRDNSKNTLYLQMNSLRAEDTAVYYCASLPKRGPRFDYWGQGTLVTVSS
VL: B1 VL with G50R, R51L, N52S, K53V, R54L, P55Q, S91G, E93T, N94L, L96W
B3: NRP1-118 (antibody, IgG2, V domains shown)
VH: EVQLLESGGGLVQPGGSLRLSCAASGFTFNKYPMMWVRQAPGKGLEWVSRISVAGRRTAYADSVKGRFTISRDNSKNTLYLQMNSLRAEDTAVYYCAKWRREGYTGSKFDYWGQGTLVTVSS
VL: DIQMTQSPSSLSASVGDRVTITCSASQDINKYLNWYQQKPGKAPKLLIYGTSNLESGVPSRFSGSGSGTDFTLTISSLQPEDFATYYCHTWDHHHTTGEHNVFGQGTKVEIK
B4: NRP1-33 (VHH)
VHH: EVQLVESGGGLVQPGGSLRLSCAASGRTFSSGTMGWFRQASGKEREFVARINSDGSTNYADSVKGRFTISADNSKNTAYLQMNSLKPEDTAVYYCAKWSSSWYGYYYYGMDVWGQGTLVTVSS
B5: NRP1-128 (antibody, IgG2, V domains shown)
VH: EVQLLESGGGLVQPGGSLRLSCAASGFTFSRYAMNWVRQAPGKGLEWVSAISGSGGNTYYADSVKGRFTISRDNSKNTLYLQMNSLRAEDTAVYYCARVRRGGATDYWGQGTLVTVSS
VL: DIQMTQSPSSLSASVGDRVTITCRASQDVSSGVAWYQQKPGKAPKLLIYGKNIRPSGVPSRFSGSGSGTDFTLTISSLQPEDFATYYCQQTYSPPLTFGQGTKVEIK
B6: NRP1-25 (VHH)
VHH: EVQLVESGGGLVQPGGSLRLSCAASGRTSNIYAMGWFRQAPGKERELVAAIRWSGVETYYADSVKGRFTISADNSKNTAYLQMNSLKPEDTAVYYCAADRMYRPVGNQYDWGQGTLVTVSS
B7: NRP1-6 (VHH)
VHH: EVQLVESGGGLVQPGGSLRLSCAASGLTYTMNWFRQAPGKEREFVAGFAGIGTVTSYADSVKGRFTISADNSKNTAYLQMNSLKPEDTAVYYCSGFDGYSGSDWGQGTLVTVSS
B8: NRP1-15 (VHH)
VHH: EVQLVESGGGLVQPGGSLRLSCAASGFTFSNYDMGWFRQAPGKEREFVAAISWSGTLTSYADSVKGRFTISADNSKNTAYLQMNSLKPEDTAVYYCARQRETGHLILYSDYYYGMDVWGQGTLVTVSS
B9: NRP1-35 (VHH)
VHH: EVQLVESGGGLVQPGGSLRLSCAASGSIFSFNAMGWFRQAPGKERELVASITPGGNINYADSVKGRFTISADNSKNTAYLQMNSLKPEDTAVYYCARDVEGGWYGLSYGMDVWGQGTLVTVSS
B10: NRP1-11 (VHH)
VHH: EVQLVESGGGLVQPGGSLRLSCAASGRTFTTYPMGWFRQAPGKEREFVAAITWNGASTSYADSVKGRFTISADNSKNTAYLQMNSLKPEDTAVYYCAKGGGYSGYDYDYWGQGTLVTVSS
B11: NRP1-18 (VHH)
VHH: EVQLVESGGGLVQPGGSLRLSCAASGFRFSSYGMGWFRQAPGKEREFVAFISGNPSRTYYADSVKGRFTISADNSKNTAYLQMNSLKPEDTAVYYCAARPYQKYNWASASYNWGQGTLVTVSS
B12: NRP1-125 (antibody, IgG2, V domains shown)
VH: EVQLLESGGGLVQPGGSLRLSCAASGFTFSGYDMQWVRQAPGKGLEWVSSISGYGSTTYYADSVKGRFTISRDNSKNTLYLQMNSLRAEDTAVYYCAKGRRIFDYWGQGTLVTVSS
VL: DIQMTQSPSSLSASVGDRVTITCRASQTIERRLNWYQQKPGKAPKLLIYRKSNRPSGVPSRFSGSGSGTDFTLTISSLQPEDFATYYCQQNNNWPTTFGQGTKVEIK
B13: NRP1-4 (VHH)
VHH: EVQLVESGGGLVQPGGSLRLSCAASGNIFINNAMGWFRQAPGKERELVAAITSSSGRRWYADSVKGRFTISADNSKNTAYLQMNSLKPEDTAVYYCAARRIVNVEGAYRDWGQGTLVTVSS
B14: NRP1-134 (antibody, IgG2, V domains shown)
VH: EVQLLESGGGLVQPGGSLRLSCAASGFTFSNYGVSWVRQAPGKGLEWVSEISPSGKKKYYADSVKGRFTISRDNSKNTLYLQMNSLRAEDTAVYYCAKTTDIQRLNSAFDYWGQGTLVTVSS
VL: DIQMTQSPSSLSASVGDRVTITCRASQPIAYFLSWYQQKPGKAPKLLIYDASSLHTGVPSRFSGSGSGTDFTLTISSLQPEDFATYYCSSRDKSGSRLVTFGQGTKVEIK
B15: NRP1-8 (VHH)
VHH: EVQLVESGGGLVQPGGSLRLSCAASGFPLDDYAMGWFRQAPGKEREFVAAINWSGGSAVYADSVKGRFTISADNSKNTAYLQMNSLKPEDTAVYYCMRGGSYGDYGGYWGQGTLVTVSS
B16: NRP1-204 (antibody, IgG2, V domains shown)
VH: EVQLLESGGGLVQPGGSLRLSCAASGFTFSAFAMSWVRQAPGKGLEWVSGTSGSGGSTYYADSVKGRFTISRDNSKNTLYLQMNSLRAEDTAVYYCARHRAYSYGLDYWGQGTLVTVSS
VL: DIQMTQSPSSLSASVGDRVTITCRARQSISTYLNWYQQKPGKAPKLLIYSASTLESGVPSRFSGSGSGTDFTLTISSLQPEDFATYYCQQSYRTPWTFGGGTKVEIK
B17: NRP1-210 (antibody, IgG2, V domains shown)
VH: EVQLLESGGGLVQPGGSLRLSCAASGFTFSSYVMAWVRQAPGKGLEWVSTISASGGTTYYADSVKGRFTISRDNSKNTLYLQMNSLRAEDTAVYYCAKVGSGWYFWGQGTLVTVSS
VL: B16 VL with A25T, R26S, T31R, S50A, T53S, E55Q, S56G, R93T, T94V, W96I
B18: NRP1-69 (VHH)
VHH: EVQLVESGGGLVQPGGSLRLSCAASGFNFNWYPMGWFRQAPGKEREWVGTINSGGSTSYADSVKGRFTISADNSKNTAYLQMNSLKPEDTAVYYCARLPPRGSYYYYYYGMDVWGQGTLVTVSS
B19: NRP1-68 (VHH)
VHH: EVQLVESGGGLVQPGGSLRLSCAASGNIFINNAMGWFRQAPGKERELVAAITSSSGRRWYADSVKGRFTISADNSKNTAYLQMNSLKPEDTAVYYCTTDRWYSSNWWGQGTLVTVSS
B20: NRP1-67 (VHH)
VHH: EVQLVESGGGLVQPGGSLRLSCAASGLYLHSSAMGWFRQAPGKEREFVAAISSSDGSTEYADSVKGRFTISADNSKNTAYLQMNSLKPEDTAVYYCASVRYYDYWSGYYTPTHAGYFESWGQGTLVTVSS
B21: NRP1-73 (VHH)
VHH: EVQLVESGGGLVQPGGSLRLSCAASGFTFSGNWMGWFRQAPGKERELVAVILRGGSTNYADSVKGRFTISADNSKNTAYLQMNSLKPEDTAVYYCAVKIYSGSYSSPPGYNWGQGTLVTVSS
B22: NRP1-5 (VHH)
VHH: EVQLVESGGGLVQPGGSLRLSCAASGNIDRLYVMGWFRQAPGKEREFVAAINWSSGTTVYADSVKGRFTISADNSKNTAYLQMNSLKPEDTAVYYCARSYSSLFRFDYWGQGTLVTVSS

In the first test the target is neuropilin-1 (NRP1), analyte in SPR (UniProt O14786 22-644, limits assumed). Kind of test: SPR, Carterra LSA, antibody coupled. The protocol:
SPR experiments were performed on a Carterra LSA SPR biosensor equipped with a HC30M chip at 25° C. in HBS-TE. Antibodies were diluted to 10 μg/mL and amine-coupled to the sensor chip by EDC/NHS activation, followed by ethanolamine HCl quenching. Increasing concentrations of analyte were flowed over the sensor chip in HBS-TE with 0.5 mg/mL BSA with 5-minute association and 15-minute dissociation. Following each injection cycle the surface was regenerated with 2× 30-second injections of IgG elution buffer (Thermo). Data were analyzed in Carterra's Kinetics Tool software with 1:1 binding model.
Background: In SPR one partner is held on a chip, and binding of the other changes the refractive index at the surface.
As to B1, the Kd (commonly the free concentration of one partner at which half of the binding sites on the other are occupied at equilibrium, for simple one-to-one binding) was 87.4 nM; the dissociation rate constant (koff) (in general, the rate constant with which the complex falls apart) turned out to be 0.00951 s⁻¹; the kon – broadly, the second-order rate constant of association – came out at 109000 M⁻¹ s⁻¹.
For the molecule B2, the binding result is listed as “no binding”.
Still for that read-out and setting: for B3 the value was “no binding”.
The molecule B4 showed a dissociation constant Kd of 10.8 nM, a koff of 0.0167 s⁻¹ and a kon of 1.55e+06 M⁻¹ s⁻¹.
Regarding B5, the binding result was “no binding”.
The molecule B6 yielded a Kd of 831 nM, an off-rate (koff) of 0.00969 s⁻¹ and an on-rate (kon) of 11700 M⁻¹ s⁻¹.
With B7, the binding result is “no binding”.
Same read-out and setting: for B8 the value was “no binding”; for B9, “no binding”.
B10: the binding result is “no binding”.
Molecule B11 yielded a dissociation constant (Kd) of 290 nM, a koff of 0.00374 s⁻¹ and an on-rate constant (kon) of 12900 M⁻¹ s⁻¹.
On to B12, for which the binding result is reported as “no binding”.
B13 returned a Kd of 183 nM, a koff of 0.047 s⁻¹ and a kon of 256000 M⁻¹ s⁻¹.
For the molecule B14, the binding result is listed as “no binding”.
In the case of B15, binding was put at a Kd of 91.1 nM, the koff turned out to be 0.00283 s⁻¹ and the kon was 31100 M⁻¹ s⁻¹.
On the same counts, the results for B16 are 408000 nM, 0.0897 s⁻¹ and 220 M⁻¹ s⁻¹.
Take B17: the binding result is “no binding”.

For a further test, the target named is T1, neuropilin-1 (NRP1) on HEK293 cells overexpressing NRP1 (UniProt O14786 22-923, limits assumed).
T1 construct: whole, on cells
The experiment in a line: flow cytometry, HEK293-NRP1 vs HEK293. In general terms: A flow cytometer gives signals particle by particle.
For B1, the “100 nM FACS (MFI Ratio)” value was 0.8.
As to B2, the “100 nM FACS (MFI Ratio)” value was 0.8.
On the same count and under the same terms, for B3 the value was 4.5; for B4, 335.
As to B5, the “100 nM FACS (MFI Ratio)” value turned out to be 1.2.
Consider B18, for which the “100 nM FACS (MFI Ratio)” value amounted to 8.2.
With B6, the “100 nM FACS (MFI Ratio)” value was determined as 8.9.
Same read-out and setting: for B19 the value was 4.9; for B7, 0.5.
Still for that read-out and setting: for B8 the value was 6.5; for B9, 2.9.
In the case of B10, the “100 nM FACS (MFI Ratio)” value was determined as 2.3.
On the same count and under the same terms, for B11 the value was 20.8.
Take B12: the “100 nM FACS (MFI Ratio)” value was determined as 0.6.
Still for that read-out and setting: next, B13: 30.9.
Still for that read-out and setting: next, B20: 2.1; B14: 1.9; B15: 3.1.
The same measure, in the same setting: for B16 the value was 9.2.
Consider B17, for which the “100 nM FACS (MFI Ratio)” value came out at 2.1.
With B21, the “100 nM FACS (MFI Ratio)” value is 5.9.
On the same count and under the same terms, next, B22: 14.8.
